Measurements: patent publication US9265845B2, “Imaging methods using engineered integrin binding peptides” (The Board of Trustees of the Leland Stanford Junior …, priority 2006, dated 2016)
Positions of bridges follow the written chain, without caps; N, C: chain ends. Residues, ends and D or L forms follow the SMILES beside them. No end group written: not given here.

What was measured:
K562-αvβ3 cells = assay: Equilibrium binding to K562 cells expressing αvβ3 integrin; settings: recombinant peptides with FLAG and His tags
Protocol: To determine the binding specificities of the AgRP peptides for αvβ3 integrin versus the αvβ5 and α5β1 integrins also expressed on U87MG cells, K562 leukemia cells that had been stably transfected with individual α and β integrin subunits were used. The engineered AgRP peptides were tested for binding to untransfected K562 cells, which intrinsically express α5β1 integrin. Equilibrium binding assays were performed on the untransfected K562 cells as described above for the U87MG cells. Three peptide concentrations were tested. Negligible signal over background levels (cells stained with fluorescein-conjugated anti-His antibody alone) even at 500 nM, the highest concentration tested, was observed.
The engineered AgRP peptides were tested for binding to K562 cells expressing αvβ5 αiiiβ3 or αvβ3 integrins. The peptides were tested at three concentrations with very little signal over background for cells expressing αvβ5 integrin, even at 500 nM, the highest concentration. The peptides bound weakly to the K562 cells expressing αiiβ3 integrins and, as expected, strongly to the K562 cells expressing αvβ3 integrins. In order to determine KD values for the engineered AgRP peptides against K562-αiiβ3 and K562-αvβ3 cells, binding titrations were done over a larger range of concentrations. […] KD values for peptide binding to K562-αiibβ3 cells could not be determined because binding was still increasing at the highest concentration (5 μM) of peptides tested.
All cell lines were cultured at 37° C. with 5% CO2. Adherent U87MG cells were obtained from ATCC and cultured in DMEM media (Gibco 11995) supplemented with 10% fetal bovine serum. Untransfected K562 cells (α5 β1-positive) were obtained from ATCC and cultured in suspension in IMDM media (Gibco 12440) supplemented with 10% fetal bovine serum. K562 cells stably transfected with αv β3, αv β5, or αiib β3 integrins were obtained from S. Blystone (Blystone, S. D., Graham, I. L., Lindberg, F. P. & Brown, E. J. (1994). Integrin avb3 differentially regulates adhesive and phagocytic functions of the fibronectin receptor a5b1. J. Cell Biol. 127, 1129-1137) and were grown in media supplemented with 10 μg/mL geneticin. Equilibrium binding assays were performed with 10^5 cells per reaction. Cells were suspended in IBB with varying amounts of engineered AgRP peptide at 4° C. for 3 h with gentle rocking. The cells were washed and resuspended in BPBS with a 1:40 dilution of fluorescein-conjugated anti-6×-His antibody (Bethyl A190-113F) and incubated on ice for 20 min. After washing, the cells were analyzed by flow cytometry using a BD FACSCalibur instrument and CellQuest software (Becton Dickinson, Franklin Lakes, N.J.). Mean fluorescence intensity values for each cell population was plotted against concentration on a log scale. […]

U87MG glioblastoma cells [1] = assay: Direct equilibrium binding titration on U87MG glioblastoma cells; settings: recombinant peptides with FLAG and His tags, 3 h at 4° C.
Protocol: Direct equilibrium binding titrations of the recombinant engineered AgRP peptides were performed on U87MG glioblastoma cells. Peptides were incubated with cells for 3 h at 4° C., followed by staining with a fluorescein-conjugated anti-His antibody and analysis by flow cytometry. Equilibrium binding constant (KD) values were obtained by fitting plots of concentration versus mean fluorescence intensity to a sigmoidal curve using KaleidaGraph software.
All cell lines were cultured at 37° C. with 5% CO2. Adherent U87MG cells were obtained from ATCC and cultured in DMEM media (Gibco 11995) supplemented with 10% fetal bovine serum. Untransfected K562 cells (α5 β1-positive) were obtained from ATCC and cultured in suspension in IMDM media (Gibco 12440) supplemented with 10% fetal bovine serum. K562 cells stably transfected with αv β3, αv β5, or αiib β3 integrins were obtained from S. Blystone (Blystone, S. D., Graham, I. L., Lindberg, F. P. & Brown, E. J. (1994). Integrin avb3 differentially regulates adhesive and phagocytic functions of the fibronectin receptor a5b1. J. Cell Biol. 127, 1129-1137) and were grown in media supplemented with 10 μg/mL geneticin. Equilibrium binding assays were performed with 10^5 cells per reaction. Cells were suspended in IBB with varying amounts of engineered AgRP peptide at 4° C. for 3 h with gentle rocking. The cells were washed and resuspended in BPBS with a 1:40 dilution of fluorescein-conjugated anti-6×-His antibody (Bethyl A190-113F) and incubated on ice for 20 min. After washing, the cells were analyzed by flow cytometry using a BD FACSCalibur instrument and CellQuest software (Becton Dickinson, Franklin Lakes, N.J.). Mean fluorescence intensity values for each cell population was plotted against concentration on a log scale. Data was fit to sigmoidal curves to obtain equilibrium dissociation constants using KaleidaGraph (Synergy Software), and is presented as average values with standard deviations. Each assay was performed a minimum of three times.

αvβ3 and αvβ5 integrins = settings: inhibiting cell adhesion mediated by αvβ3 and αvβ5 integrins; cited from earlier work
αiibβ3 integrin = αiibβ3 integrin (Homo sapiens, UniProt P05106+P08514); assay: Competition of 125I-echistatin to detergent-solubilized plate-coated integrin; format: binding; settings: 0.06 nM 125I echistatin, 5 nM and 50 nM peptide
Protocol: (§1) FIG. 10A through FIG. 10D is a series of histograms showing binding specificities to integrins αvβ3, αvβ5, α5β1, and αiibβ3 for engineered EETI-RGD peptides compared to controls. Error bars represent experiments performed in triplicate. Competition binding of 0.06 nM ^125I echistatin with 5 nM (black bars) and 50 nM (grey bars) unlabeled peptide to plate-coated integrins was measured. […] The engineered peptides have very little binding to αiibβ3 integrin.
(§2) This was done by competition of ^125I-echistatin to detergent-solubilized integrin receptors coated onto microtiter plates (see FIG. 10). […] This is consistent with previous studies which have shown αv integrin receptors can accommodate a wide range of RGD-containing cyclic structures. […] However, since α5β1 integrins are expressed on many tumors and are all involved in mediating angiogenesis and metastasis, a broad spectrum agent that targets all three integrins will be useful for diagnostic and therapeutic applications. With the exception of echistatin, all of the RGD-containing peptides bound weakly to the αiibβ3 receptor, showing the specificity of the present peptides for the αv and α5-containing integrin heterodimers. This characteristic is valuable for molecular imaging and therapeutic applications, since binding to αiibβ3 on platelet cells prevents blood clotting and would lead to non-specific in vivo effects.

αvβ5 integrin = αvβ5 integrin (Homo sapiens, UniProt P06756+P18084); assay: as above; format: binding; settings: 0.06 nM 125I echistatin, 5 nM and 50 nM peptide
Chain of αvβ5 integrin (P06756 31-889 limits assumed): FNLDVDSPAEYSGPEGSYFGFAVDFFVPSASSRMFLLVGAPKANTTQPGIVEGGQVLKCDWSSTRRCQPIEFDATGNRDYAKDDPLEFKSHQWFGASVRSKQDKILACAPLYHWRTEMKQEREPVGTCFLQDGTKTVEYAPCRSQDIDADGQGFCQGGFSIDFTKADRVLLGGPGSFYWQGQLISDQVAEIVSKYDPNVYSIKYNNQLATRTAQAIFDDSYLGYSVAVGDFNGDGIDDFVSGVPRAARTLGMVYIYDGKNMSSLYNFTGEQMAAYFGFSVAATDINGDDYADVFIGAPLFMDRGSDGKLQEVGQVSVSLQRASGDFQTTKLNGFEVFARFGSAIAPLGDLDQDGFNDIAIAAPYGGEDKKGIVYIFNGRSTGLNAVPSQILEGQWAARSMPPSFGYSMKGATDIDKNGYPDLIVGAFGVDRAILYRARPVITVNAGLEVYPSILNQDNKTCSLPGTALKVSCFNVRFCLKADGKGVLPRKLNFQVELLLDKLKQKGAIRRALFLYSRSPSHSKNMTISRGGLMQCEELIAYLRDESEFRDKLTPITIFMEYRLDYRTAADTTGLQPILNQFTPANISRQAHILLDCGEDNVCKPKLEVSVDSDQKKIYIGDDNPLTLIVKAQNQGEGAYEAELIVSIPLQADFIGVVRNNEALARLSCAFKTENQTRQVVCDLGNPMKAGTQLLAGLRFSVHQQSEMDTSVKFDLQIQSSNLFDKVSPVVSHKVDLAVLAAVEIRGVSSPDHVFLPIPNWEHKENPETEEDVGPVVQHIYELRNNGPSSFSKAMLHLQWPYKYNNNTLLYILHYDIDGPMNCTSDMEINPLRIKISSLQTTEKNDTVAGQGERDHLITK
Chain of αvβ5 integrin (P06756 891-1048 partner limits assumed): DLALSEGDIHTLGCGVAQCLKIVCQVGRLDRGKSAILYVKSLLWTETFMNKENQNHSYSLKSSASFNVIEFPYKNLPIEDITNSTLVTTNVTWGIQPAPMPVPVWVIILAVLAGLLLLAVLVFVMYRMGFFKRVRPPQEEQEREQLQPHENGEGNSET
Chain of αvβ5 integrin (P18084 24-799): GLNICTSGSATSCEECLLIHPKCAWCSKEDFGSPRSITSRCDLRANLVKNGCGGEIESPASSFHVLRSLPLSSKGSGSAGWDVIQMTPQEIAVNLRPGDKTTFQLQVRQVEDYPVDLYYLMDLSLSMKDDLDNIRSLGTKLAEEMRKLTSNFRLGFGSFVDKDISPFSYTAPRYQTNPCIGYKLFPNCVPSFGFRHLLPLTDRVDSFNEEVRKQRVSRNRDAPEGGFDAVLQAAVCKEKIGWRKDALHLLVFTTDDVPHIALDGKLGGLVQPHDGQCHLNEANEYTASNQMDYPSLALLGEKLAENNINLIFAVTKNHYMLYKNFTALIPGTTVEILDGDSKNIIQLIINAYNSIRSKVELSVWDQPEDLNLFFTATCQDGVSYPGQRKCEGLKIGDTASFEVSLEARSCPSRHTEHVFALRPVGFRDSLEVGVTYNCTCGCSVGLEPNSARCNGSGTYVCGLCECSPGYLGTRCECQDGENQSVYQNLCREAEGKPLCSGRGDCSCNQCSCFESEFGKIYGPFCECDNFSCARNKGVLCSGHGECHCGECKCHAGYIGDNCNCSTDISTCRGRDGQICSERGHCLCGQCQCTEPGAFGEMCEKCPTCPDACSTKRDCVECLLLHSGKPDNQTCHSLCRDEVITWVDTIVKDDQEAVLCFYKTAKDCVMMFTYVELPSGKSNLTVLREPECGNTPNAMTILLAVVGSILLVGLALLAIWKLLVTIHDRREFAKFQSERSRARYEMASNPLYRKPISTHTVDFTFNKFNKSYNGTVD
Protocol: as §1, §2

α5β1 integrin = α5β1 integrin (Homo sapiens, UniProt P05556+P08648); assay: as above; format: binding; settings: 0.06 nM 125I echistatin, 5 nM and 50 nM peptide
Chain of α5β1 integrin (P08648 42-894 limits assumed): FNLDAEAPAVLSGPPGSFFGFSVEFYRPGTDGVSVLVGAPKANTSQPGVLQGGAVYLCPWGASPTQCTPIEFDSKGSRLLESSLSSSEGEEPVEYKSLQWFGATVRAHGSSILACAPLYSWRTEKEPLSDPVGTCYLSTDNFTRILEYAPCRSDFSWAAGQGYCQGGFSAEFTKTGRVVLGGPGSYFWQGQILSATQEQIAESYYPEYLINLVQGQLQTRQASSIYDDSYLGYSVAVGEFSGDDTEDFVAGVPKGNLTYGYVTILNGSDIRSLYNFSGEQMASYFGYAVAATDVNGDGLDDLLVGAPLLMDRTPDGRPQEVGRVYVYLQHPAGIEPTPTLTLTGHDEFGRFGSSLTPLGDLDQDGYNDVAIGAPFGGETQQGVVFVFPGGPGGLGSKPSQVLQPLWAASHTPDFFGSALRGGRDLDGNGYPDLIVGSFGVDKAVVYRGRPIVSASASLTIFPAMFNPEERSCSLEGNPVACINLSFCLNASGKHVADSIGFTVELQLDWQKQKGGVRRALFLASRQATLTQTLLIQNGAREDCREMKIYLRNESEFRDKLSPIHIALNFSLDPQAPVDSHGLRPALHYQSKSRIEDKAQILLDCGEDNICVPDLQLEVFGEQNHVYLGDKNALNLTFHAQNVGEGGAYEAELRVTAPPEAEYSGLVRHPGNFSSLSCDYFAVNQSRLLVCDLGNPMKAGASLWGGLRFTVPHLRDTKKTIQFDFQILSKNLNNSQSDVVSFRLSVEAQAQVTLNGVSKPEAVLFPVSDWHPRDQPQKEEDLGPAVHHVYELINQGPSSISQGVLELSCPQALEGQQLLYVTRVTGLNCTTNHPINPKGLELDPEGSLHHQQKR
Chain of α5β1 integrin (P08648 895-1049 partner limits assumed): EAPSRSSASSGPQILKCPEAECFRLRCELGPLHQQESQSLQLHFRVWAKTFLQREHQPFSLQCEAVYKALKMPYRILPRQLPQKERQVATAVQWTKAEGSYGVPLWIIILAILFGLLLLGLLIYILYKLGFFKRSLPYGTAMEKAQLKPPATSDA
Chain of α5β1 integrin (P05556 21-798): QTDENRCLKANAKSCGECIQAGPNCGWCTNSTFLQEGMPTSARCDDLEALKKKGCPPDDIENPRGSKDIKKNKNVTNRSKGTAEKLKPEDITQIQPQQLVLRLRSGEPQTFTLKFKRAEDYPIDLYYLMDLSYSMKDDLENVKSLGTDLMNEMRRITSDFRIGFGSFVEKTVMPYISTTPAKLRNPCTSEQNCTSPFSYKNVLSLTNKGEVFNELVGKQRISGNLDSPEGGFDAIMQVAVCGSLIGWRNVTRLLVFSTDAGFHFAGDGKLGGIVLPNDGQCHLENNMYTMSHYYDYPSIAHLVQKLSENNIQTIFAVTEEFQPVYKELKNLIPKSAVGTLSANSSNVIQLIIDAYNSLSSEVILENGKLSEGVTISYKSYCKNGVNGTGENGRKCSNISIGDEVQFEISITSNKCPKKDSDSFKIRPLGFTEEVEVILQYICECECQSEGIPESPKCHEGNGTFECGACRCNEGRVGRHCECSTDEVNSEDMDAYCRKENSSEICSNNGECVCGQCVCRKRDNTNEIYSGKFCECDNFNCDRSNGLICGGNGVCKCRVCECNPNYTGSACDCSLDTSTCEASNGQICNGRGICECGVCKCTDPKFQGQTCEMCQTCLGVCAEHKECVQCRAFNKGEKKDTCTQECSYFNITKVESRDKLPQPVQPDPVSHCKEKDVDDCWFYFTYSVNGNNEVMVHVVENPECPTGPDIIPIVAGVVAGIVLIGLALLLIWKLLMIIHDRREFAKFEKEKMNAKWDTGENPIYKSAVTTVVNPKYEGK
Protocol: as §1, §2

αvβ3 integrin = αvβ3 integrin (Homo sapiens, UniProt P05106+P06756); assay: as above; format: binding; settings: 0.06 nM 125I echistatin, 5 nM and 50 nM peptide
Chain of αvβ3 integrin (P06756 31-889 limits assumed): as the sequence (P06756 31-889 limits assumed) above
Chain of αvβ3 integrin (P06756 891-1048 partner limits assumed): as the sequence (P06756 891-1048 partner limits assumed) above
Chain of αvβ3 integrin (P05106 27-788): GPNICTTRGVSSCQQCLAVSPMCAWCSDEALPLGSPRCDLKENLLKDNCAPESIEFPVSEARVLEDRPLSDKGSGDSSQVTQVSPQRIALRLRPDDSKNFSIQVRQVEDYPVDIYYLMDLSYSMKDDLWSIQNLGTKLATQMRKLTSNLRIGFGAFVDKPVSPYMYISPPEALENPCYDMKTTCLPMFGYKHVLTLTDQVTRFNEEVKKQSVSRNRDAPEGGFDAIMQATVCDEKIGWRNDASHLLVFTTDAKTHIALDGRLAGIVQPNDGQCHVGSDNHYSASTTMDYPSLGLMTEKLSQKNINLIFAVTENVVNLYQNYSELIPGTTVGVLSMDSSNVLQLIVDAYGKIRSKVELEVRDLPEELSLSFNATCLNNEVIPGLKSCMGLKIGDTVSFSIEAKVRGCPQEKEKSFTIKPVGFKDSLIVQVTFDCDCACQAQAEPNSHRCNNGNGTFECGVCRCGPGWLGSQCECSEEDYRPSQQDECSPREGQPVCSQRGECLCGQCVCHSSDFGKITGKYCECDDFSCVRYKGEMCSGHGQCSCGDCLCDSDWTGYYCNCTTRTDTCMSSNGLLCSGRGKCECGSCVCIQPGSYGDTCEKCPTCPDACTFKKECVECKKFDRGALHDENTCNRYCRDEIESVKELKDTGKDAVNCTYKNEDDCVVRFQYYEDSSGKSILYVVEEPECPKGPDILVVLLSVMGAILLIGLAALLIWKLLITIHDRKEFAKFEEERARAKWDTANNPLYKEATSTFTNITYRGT
Protocol: as §1, §2

U87MG glioblastoma cells [2] = assay: Blocking of U87MG cell adhesion to fibronectin-coated plates; format: cell-based
Description: (§3) The present engineered peptides may be used in a variety of ways. If the peptides are attached to a surface, they may be used to attract/recruit cells to grow on the surface. For example, the present peptides may be applied to prosthetic devices, implants, bone grafts, and the like to promote tissue growth and healing at the site. They may be attached to culture dishes and promote attachment and differentiation of cells in culture. In addition, the present engineered peptides may be used to modulate cell binding to selected integrins such as α5β1, αvβ3 and αvβ5, particularly αvβ3, by adding the peptides to a cell culture to prevent cells expressing these integrins from adhering to a substrate. […] Also, the present 2.5F, 2.5D and 1.5B peptides were tested for blocking adhesion of U87MG glioblastoma cells to fibronectin-coated plates.
(§4) In another experiment, the ability of engineered knottin peptides to block U87MG cell adhesion to vitronectin- and fibronectin-coated microtiter plates. Vitronectin is a natural ligand for several integrins, including αvβ3 and αvβ5. The RGD-containing peptides were all able to inhibit U87MG cell adhesion to vitronectin-coated plates in a dose-responsive manner. […] Fibronectin also binds to several integrins, (including αvβ3 and α5β1), but the α5β1 integrin receptor is generally selective for fibronectin.

U87MG glioblastoma cells [3] = assay: Blocking of U87MG cell adhesion to vitronectin-coated plates; format: cell-based; settings: vitronectin-coated plates
Description: as §3, §4
Whether the engineered AgRP peptides could block vitronectin-mediated adhesion to the U87MG cells was tested using an analogous assay. […] The AgRP peptides may not effectively block U87MG adhesion compared to the K562-αvβ3 cells because the αvβ5 integrins co-expressed on the surface of the U87MG cells could also contribute to vitronectin-mediated adhesion and compensate for the loss of αvβ3 integrin function.

[4] = target: T1, αvβ3 integrin on U87MG glioblastoma cells (Homo sapiens, UniProt P05106+P06756); assay: 125I-echistatin competition binding to U87MG glioblastoma cells
T1 construct: host or cells: U87MG glioblastoma cells
T1 sequence (P06756 31-889 limits assumed): as the sequence (P06756 31-889 limits assumed) above
T1 sequence (P06756 891-1048 limits assumed): as the sequence (P06756 891-1048 partner limits assumed) above
T1 sequence (P05106 27-788): as the sequence (P05106 27-788) above
Protocol: FIG. 9 is a graph showing normalized competition plotted against peptide concentration in an integrin-binding assay on U87MG glioblastoma cells.
U87MG glioblastoma cells, which express ˜10^5 αvβ3 integrin receptors per cell, were used for these studies. […] An EETI-based polypeptide with a scrambled RDG amino acid sequence, designated FN-RDG, served as a negative control.
Half-maximal inhibitory concentrations (IC50) […] of data measured on at least three separate days. Data for unlabeled and Cy5.5-labeled peptides are shown. Site-specific labeling of RGD miniproteins with a near-infrared optical imaging probe: The free N-terminal amine of our polypeptides was used for site-specific attachment of Cy5.5, a near infrared imaging probe.
An αvβ3 integrin receptor binding assay is performed to determine the relative affinities of the mock-PET tracers compared to their unlabeled polypeptides. Briefly, 2×10^5 U87MG glioblastoma cells are incubated with 0.06 nM ^125I-echistatin in integrin binding buffer (25 mM Tris-HCl, pH 7.4, 150 mM NaCl2 1 mM CaCl2 1 mM MgCl2, 1 mM MnCl2, 0.1% BSA), in the presence of increasing concentrations of mock-PET tracers at room temperature. After incubation for 3 h, cells are pelleted by centrifugation at 1500 RPM and washed three times in binding buffer to remove unbound ligands. The radioactivity remaining in the cell pellet is measured by γ counting. IC50 values are determined by plotting the % competition and using a four-point binding equation (Kaleidagraph) to fit the data.

| Compound | binding to αiibβ3 integrin, in words (αiibβ3 integrin) | binding to αvβ5 integrin, in words (αvβ5 integrin) | binding to α5β1 integrin, in words (α5β1 integrin) | binding to αvβ3 integrin, in words (αvβ3 integrin) | other results |
| --- | --- | --- | --- | --- | --- |
| CSCC[C@@H]1NC(=O)[C@H](CC(=O)O)NC(=O)[C@H](CCCNC(=N)N)NC(=O)[C@H](CC(=O)O)NC(=O)CNC(=O)[C@H](CCCNC(=N)N)NC(=O)CNC(=O)[C@H](CCC(=O)O)NC(=O)[C@@H]2CSSC[C@H](NC(=O)[C@H](CCCCN)NC1=O)C(=O)N[C@@H](Cc1ccc(O)cc1)C(=O)N[C@H](C(=O)N[C@@H](CCCNC(=N)N)C(=O)O)CSSC[C@@H]1NC(=O)[C@@H]3CCCN3C(=O)[C@H](C(C)C)NC(=O)[C@H](CCC(N)=O)NC(=O)[C@H](CCC(N)=O)NC(=O)CNC(=O)[C@H](CC(C)C)NC(=O)[C@@H]3CSSC[C@H](NC(=O)[C@H]([C@@H](C)O)NC(=O)[C@H](C)NC(=O)[C@H](C)NC(=O)[C@@H]4CCCN4C(=O)[C@H](CC(=O)O)NC(=O)[C@H](CSSC[C@H](NC(=O)CN)C(=O)N[C@@H](C(C)C)C(=O)N[C@@H](CCCNC(=N)N)C(=O)N[C@@H](CC(C)C)C(=O)N[C@@H](Cc4c[nH]cn4)C(=O)N[C@@H](CCC(=O)O)C(=O)N[C@@H](CO)C(=O)N3)NC1=O)C(=O)N[C@@H](Cc1ccc(O)cc1)C(=O)N2 [7J] (H-GCVRLHESCLGQQVPCCDPAATCYCEGRGDRDMKCYCR-OH; disulfide 2-17, 9-23, 16-37, 25-35; N-terminus and C-terminus assumed) |  |  |  |  | Kd (K562-αvβ3 cells): 16 ± 8 nM; Kd (U87MG glioblastoma cells [1]): 8.3 ± 1.8 nM |
| ACDCRGDCFCG (disulfide (positions not given here); also: two disulfide bonds, pairing not given here) |  |  |  |  | fold more effective than comparable peptides with one disulfide bond (αvβ3 and αvβ5 integrins): 20 fold; fold more potent than linear RGD peptides (αvβ3 and αvβ5 integrins): 200 fold |
| DOTA-conjugated FN-RDG2: DOTA conjugate of negative control with RGD switched to RDG (GCVTGRDGSPASSCSQDSDCLAGCVCGPNGFCG; cysteine pairing not given here; also: DOTA conjugate, position not given here) | did not bind | did not bind | did not bind | did not bind |  |
| FN-RDG: EETI-based polypeptide with a scrambled RDG amino acid sequence, negative control (GCVTGRDGSPASSCSQDSDCLAGCVCGPNGFCG) | did not bind | did not bind | did not bind | did not bind | blocking of U87MG cell adhesion to fibronectin, in words (U87MG glioblastoma cells [2]): not able to inhibit; blocking of U87MG cell adhesion to vitronectin, in words (U87MG glioblastoma cells [3]): not able to inhibit; binding to U87MG cells / competition with 125I-echistatin, in words [4]: not able to compete |
